From patent US20250074995A1 (I MAB BIOPHARMA, published 2025)

Biological target: T1, monomeric human 4-1BB (human, UniProt Q07011 24-186)
T1 construct: SPR analyte or ligand
Test: SPR with monomeric human 4-1BB

B1: parental anti-4-1BB sdAb antibody conjugated with IgG1 Fc fragment (Fc fusion)
chain: QVQLQESGGGLVQPGGSLRLSCAASGYTYSSNCMGWFRQAPGKGLEGVAVICTGGGSPSYADSVKGRFTISRDNAKNTLYLQMNSLRAEDTAVYYCAADLLRAGTPLSSYEFNYWGQGTLVTVSS
notes: also called 4-1BB sdAb-Fc; not shown: IgG1 Fc fragment
koff: 0.000168 s⁻¹
